Measurements published in the supplement of paper PMC10266784.

B1: library; numbered along this chain (parent)
chain: MAAAAAAAAEQQSSNGPVKKSMREKAVERRSVNKEHNSNFKAGYIPIDEDRLHKTGLRGRKGNLAICVIILLFILAVINLIITLVIWAVIRIGPNGCDSMEFHESGLLRFKQVSDMGVIHPLYKSTVGGRRNENLVITGNNQPIVFQQGTTKLSVENNKTSITSDIGMQFFDPRTQNILFSTDYETHEFHLPSGVKSLNVQKASTERITSNATSDLNIKVDGRAIVRGNEGVFIMGKTIEFHMGGNMELKAENSIILNGSVMVSTTRLPSSSSGDQLGSGDWVRYKLCMCADGTLFKVQVTSQNMGCQISDNPCGNTH

Variants of: B1
Experiment: SGCB cell-surface expression functional score (HA stain, bin4 vs bin1, normalised to synonymous) (log10 ratio); higher = more cell-surface SGCB (functional)
Summary of the method: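 HEK293 cells stably expressing alpha-, gamma- and delta-sarcoglycan received codon-saturation libraries of HA-tagged, YFP-fused human beta-sarcoglycan by lentiviral transduction at MOI <0.1, performed in duplicate. Cells positive for YFP were sorted after 72 hours and cultured for 5–7 days, then stained on ice with Alexa Fluor 647 anti-HA and fixed. Fixed cells were sorted into four 5% intensity bins and amplicon-sequenced, and the log ratio of highest-bin to lowest-bin variant frequency, as a median over codons and transductions, gives the functional score. Per section, synonymous variants were scaled to mean 0, SD 0.5.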

Point of comparison: MAAAAAAAAEQQSSNGPVKKSMREKAVERRSVNKEHNSNFKAGYIPIDEDRLHKTGLRGRKGNLAICVIILLFILAVINLIITLVIWAVIRIGPNGCDSMEFHESGLLRPKQVSDMGVIHPLYKSTVGGRRNENLVITGNNQPIVFQQGTTKLSVENNKTSITSDIGMQFFDPRTQNILFSTDYETHEFHLPSGVKSLNVQKASTERITSNATSDLNIKVDGRAIVRGNEGVFIMGKTIEFHMGGNMELKAENSIILNGSVMVSTTRLPSSSSGDQLGSGDWVRYKLCMCADGTLFKVQVTSQNMGCQISDNPCGNTH [F110P], “SGCB cell-surface expression functional score (log10)” value -1.35. Against it:
- MAAAAAAAAEQQSSNGPVKKSMREKAVERRSVNKEHNSNFKAGYIPIDEDRLHKTGLRGRKGNLAICVIILLFILAVINLIITLVIWAVIRIGPNGCDSMEFHESGLLRRKQVSDMGVIHPLYKSTVGGRRNENLVITGNNQPIVFQQGTTKLSVENNKTSITSDIGMQFFDPRTQNILFSTDYETHEFHLPSGVKSLNVQKASTERITSNATSDLNIKVDGRAIVRGNEGVFIMGKTIEFHMGGNMELKAENSIILNGSVMVSTTRLPSSSSGDQLGSGDWVRYKLCMCADGTLFKVQVTSQNMGCQISDNPCGNTH [F110R] — higher, -1.05
- MAAAAAAAAEQQSSNGPVKKSMREKAVERRSVNKEHNSNFKAGYIPIDEDRLHKTGLRGRKGNLAICVIILLFILAVINLIITLVIWAVIRIGPNGCDSMEFHESGLLRSKQVSDMGVIHPLYKSTVGGRRNENLVITGNNQPIVFQQGTTKLSVENNKTSITSDIGMQFFDPRTQNILFSTDYETHEFHLPSGVKSLNVQKASTERITSNATSDLNIKVDGRAIVRGNEGVFIMGKTIEFHMGGNMELKAENSIILNGSVMVSTTRLPSSSSGDQLGSGDWVRYKLCMCADGTLFKVQVTSQNMGCQISDNPCGNTH [F110S] — within 0.2 log units, -1.18
- MAAAAAAAAEQQSSNGPVKKSMREKAVERRSVNKEHNSNFKAGYIPIDEDRLHKTGLRGRKGNLAICVIILLFILAVINLIITLVIWAVIRIGPNGCDSMEFHESGLLRQKQVSDMGVIHPLYKSTVGGRRNENLVITGNNQPIVFQQGTTKLSVENNKTSITSDIGMQFFDPRTQNILFSTDYETHEFHLPSGVKSLNVQKASTERITSNATSDLNIKVDGRAIVRGNEGVFIMGKTIEFHMGGNMELKAENSIILNGSVMVSTTRLPSSSSGDQLGSGDWVRYKLCMCADGTLFKVQVTSQNMGCQISDNPCGNTH [F110Q] — higher, -1.06
- MAAAAAAAAEQQSSNGPVKKSMREKAVERRSVNKEHNSNFKAGYIPIDEDRLHKTGLRGRKGNLAICVIILLFILAVINLIITLVIWAVIRIGPNGCDSMEFHESGLLRNKQVSDMGVIHPLYKSTVGGRRNENLVITGNNQPIVFQQGTTKLSVENNKTSITSDIGMQFFDPRTQNILFSTDYETHEFHLPSGVKSLNVQKASTERITSNATSDLNIKVDGRAIVRGNEGVFIMGKTIEFHMGGNMELKAENSIILNGSVMVSTTRLPSSSSGDQLGSGDWVRYKLCMCADGTLFKVQVTSQNMGCQISDNPCGNTH [F110N] — higher, -0.99
- MAAAAAAAAEQQSSNGPVKKSMREKAVERRSVNKEHNSNFKAGYIPIDEDRLHKTGLRGRKGNLAICVIILLFILAVINLIITLVIWAVIRIGPNGCDSMEFHESGLLRWKQVSDMGVIHPLYKSTVGGRRNENLVITGNNQPIVFQQGTTKLSVENNKTSITSDIGMQFFDPRTQNILFSTDYETHEFHLPSGVKSLNVQKASTERITSNATSDLNIKVDGRAIVRGNEGVFIMGKTIEFHMGGNMELKAENSIILNGSVMVSTTRLPSSSSGDQLGSGDWVRYKLCMCADGTLFKVQVTSQNMGCQISDNPCGNTH [F110W] — higher, -1.08
- MAAAAAAAAEQQSSNGPVKKSMREKAVERRSVNKEHNSNFKAGYIPIDEDRLHKTGLRGRKGNLAICVIILLFILAVINLIITLVIWAVIRIGPNGCDSMEFHESGLLRVKQVSDMGVIHPLYKSTVGGRRNENLVITGNNQPIVFQQGTTKLSVENNKTSITSDIGMQFFDPRTQNILFSTDYETHEFHLPSGVKSLNVQKASTERITSNATSDLNIKVDGRAIVRGNEGVFIMGKTIEFHMGGNMELKAENSIILNGSVMVSTTRLPSSSSGDQLGSGDWVRYKLCMCADGTLFKVQVTSQNMGCQISDNPCGNTH [F110V] — higher, -0.47
- MAAAAAAAAEQQSSNGPVKKSMREKAVERRSVNKEHNSNFKAGYIPIDEDRLHKTGLRGRKGNLAICVIILLFILAVINLIITLVIWAVIRIGPNGCDSMEFHESGLLRTKQVSDMGVIHPLYKSTVGGRRNENLVITGNNQPIVFQQGTTKLSVENNKTSITSDIGMQFFDPRTQNILFSTDYETHEFHLPSGVKSLNVQKASTERITSNATSDLNIKVDGRAIVRGNEGVFIMGKTIEFHMGGNMELKAENSIILNGSVMVSTTRLPSSSSGDQLGSGDWVRYKLCMCADGTLFKVQVTSQNMGCQISDNPCGNTH [F110T] — higher, -1.1
- MAAAAAAAAEQQSSNGPVKKSMREKAVERRSVNKEHNSNFKAGYIPIDEDRLHKTGLRGRKGNLAICVIILLFILAVINLIITLVIWAVIRIGPNGCDSMEFHESGLLRYKQVSDMGVIHPLYKSTVGGRRNENLVITGNNQPIVFQQGTTKLSVENNKTSITSDIGMQFFDPRTQNILFSTDYETHEFHLPSGVKSLNVQKASTERITSNATSDLNIKVDGRAIVRGNEGVFIMGKTIEFHMGGNMELKAENSIILNGSVMVSTTRLPSSSSGDQLGSGDWVRYKLCMCADGTLFKVQVTSQNMGCQISDNPCGNTH [F110Y] — higher, -0.99
- MAAAAAAAAEQQSSNGPVKKSMREKAVERRSVNKEHNSNFKAGYIPIDEDRLHKTGLRGRKGNLAICVIILLFILAVINLIITLVIWAVIRIGPNGCDSMEFHESGLLRFDQVSDMGVIHPLYKSTVGGRRNENLVITGNNQPIVFQQGTTKLSVENNKTSITSDIGMQFFDPRTQNILFSTDYETHEFHLPSGVKSLNVQKASTERITSNATSDLNIKVDGRAIVRGNEGVFIMGKTIEFHMGGNMELKAENSIILNGSVMVSTTRLPSSSSGDQLGSGDWVRYKLCMCADGTLFKVQVTSQNMGCQISDNPCGNTH [K111D] — higher, -0.84
- MAAAAAAAAEQQSSNGPVKKSMREKAVERRSVNKEHNSNFKAGYIPIDEDRLHKTGLRGRKGNLAICVIILLFILAVINLIITLVIWAVIRIGPNGCDSMEFHESGLLRFHQVSDMGVIHPLYKSTVGGRRNENLVITGNNQPIVFQQGTTKLSVENNKTSITSDIGMQFFDPRTQNILFSTDYETHEFHLPSGVKSLNVQKASTERITSNATSDLNIKVDGRAIVRGNEGVFIMGKTIEFHMGGNMELKAENSIILNGSVMVSTTRLPSSSSGDQLGSGDWVRYKLCMCADGTLFKVQVTSQNMGCQISDNPCGNTH [K111H] — higher, -0.03
- MAAAAAAAAEQQSSNGPVKKSMREKAVERRSVNKEHNSNFKAGYIPIDEDRLHKTGLRGRKGNLAICVIILLFILAVINLIITLVIWAVIRIGPNGCDSMEFHESGLLRFGQVSDMGVIHPLYKSTVGGRRNENLVITGNNQPIVFQQGTTKLSVENNKTSITSDIGMQFFDPRTQNILFSTDYETHEFHLPSGVKSLNVQKASTERITSNATSDLNIKVDGRAIVRGNEGVFIMGKTIEFHMGGNMELKAENSIILNGSVMVSTTRLPSSSSGDQLGSGDWVRYKLCMCADGTLFKVQVTSQNMGCQISDNPCGNTH [K111G] — higher, -1.08
- MAAAAAAAAEQQSSNGPVKKSMREKAVERRSVNKEHNSNFKAGYIPIDEDRLHKTGLRGRKGNLAICVIILLFILAVINLIITLVIWAVIRIGPNGCDSMEFHESGLLRFMQVSDMGVIHPLYKSTVGGRRNENLVITGNNQPIVFQQGTTKLSVENNKTSITSDIGMQFFDPRTQNILFSTDYETHEFHLPSGVKSLNVQKASTERITSNATSDLNIKVDGRAIVRGNEGVFIMGKTIEFHMGGNMELKAENSIILNGSVMVSTTRLPSSSSGDQLGSGDWVRYKLCMCADGTLFKVQVTSQNMGCQISDNPCGNTH [K111M] — higher, -0.31
- MAAAAAAAAEQQSSNGPVKKSMREKAVERRSVNKEHNSNFKAGYIPIDEDRLHKTGLRGRKGNLAICVIILLFILAVINLIITLVIWAVIRIGPNGCDSMEFHESGLLRFLQVSDMGVIHPLYKSTVGGRRNENLVITGNNQPIVFQQGTTKLSVENNKTSITSDIGMQFFDPRTQNILFSTDYETHEFHLPSGVKSLNVQKASTERITSNATSDLNIKVDGRAIVRGNEGVFIMGKTIEFHMGGNMELKAENSIILNGSVMVSTTRLPSSSSGDQLGSGDWVRYKLCMCADGTLFKVQVTSQNMGCQISDNPCGNTH [K111L] — higher, -0.35
- MAAAAAAAAEQQSSNGPVKKSMREKAVERRSVNKEHNSNFKAGYIPIDEDRLHKTGLRGRKGNLAICVIILLFILAVINLIITLVIWAVIRIGPNGCDSMEFHESGLLRFEQVSDMGVIHPLYKSTVGGRRNENLVITGNNQPIVFQQGTTKLSVENNKTSITSDIGMQFFDPRTQNILFSTDYETHEFHLPSGVKSLNVQKASTERITSNATSDLNIKVDGRAIVRGNEGVFIMGKTIEFHMGGNMELKAENSIILNGSVMVSTTRLPSSSSGDQLGSGDWVRYKLCMCADGTLFKVQVTSQNMGCQISDNPCGNTH [K111E] — higher, -0.76
- MAAAAAAAAEQQSSNGPVKKSMREKAVERRSVNKEHNSNFKAGYIPIDEDRLHKTGLRGRKGNLAICVIILLFILAVINLIITLVIWAVIRIGPNGCDSMEFHESGLLRFCQVSDMGVIHPLYKSTVGGRRNENLVITGNNQPIVFQQGTTKLSVENNKTSITSDIGMQFFDPRTQNILFSTDYETHEFHLPSGVKSLNVQKASTERITSNATSDLNIKVDGRAIVRGNEGVFIMGKTIEFHMGGNMELKAENSIILNGSVMVSTTRLPSSSSGDQLGSGDWVRYKLCMCADGTLFKVQVTSQNMGCQISDNPCGNTH [K111C] — higher, 0.01
- MAAAAAAAAEQQSSNGPVKKSMREKAVERRSVNKEHNSNFKAGYIPIDEDRLHKTGLRGRKGNLAICVIILLFILAVINLIITLVIWAVIRIGPNGCDSMEFHESGLLRFIQVSDMGVIHPLYKSTVGGRRNENLVITGNNQPIVFQQGTTKLSVENNKTSITSDIGMQFFDPRTQNILFSTDYETHEFHLPSGVKSLNVQKASTERITSNATSDLNIKVDGRAIVRGNEGVFIMGKTIEFHMGGNMELKAENSIILNGSVMVSTTRLPSSSSGDQLGSGDWVRYKLCMCADGTLFKVQVTSQNMGCQISDNPCGNTH [K111I] — higher, -0.61
- MAAAAAAAAEQQSSNGPVKKSMREKAVERRSVNKEHNSNFKAGYIPIDEDRLHKTGLRGRKGNLAICVIILLFILAVINLIITLVIWAVIRIGPNGCDSMEFHESGLLRFFQVSDMGVIHPLYKSTVGGRRNENLVITGNNQPIVFQQGTTKLSVENNKTSITSDIGMQFFDPRTQNILFSTDYETHEFHLPSGVKSLNVQKASTERITSNATSDLNIKVDGRAIVRGNEGVFIMGKTIEFHMGGNMELKAENSIILNGSVMVSTTRLPSSSSGDQLGSGDWVRYKLCMCADGTLFKVQVTSQNMGCQISDNPCGNTH [K111F] — higher, -0.85
- MAAAAAAAAEQQSSNGPVKKSMREKAVERRSVNKEHNSNFKAGYIPIDEDRLHKTGLRGRKGNLAICVIILLFILAVINLIITLVIWAVIRIGPNGCDSMEFHESGLLRFAQVSDMGVIHPLYKSTVGGRRNENLVITGNNQPIVFQQGTTKLSVENNKTSITSDIGMQFFDPRTQNILFSTDYETHEFHLPSGVKSLNVQKASTERITSNATSDLNIKVDGRAIVRGNEGVFIMGKTIEFHMGGNMELKAENSIILNGSVMVSTTRLPSSSSGDQLGSGDWVRYKLCMCADGTLFKVQVTSQNMGCQISDNPCGNTH [K111A] — higher, -1.04
